Test results from IntAct's records for PubMed 30523278.

B1: Protein amnionless (Homo sapiens), Q9BXJ7 (parent)
chain: MGVLGRVLLWLQLCALTQAVSKLWVPNTDFDVAANWSQNRTPCAGGAVEFPADKMVSVLVQEGHAVSDMLLPLDGELVLASGAGFGVSDVGSHLDCGAGEPAVFRDSDRFSWHDPHLWRSGDEAPGLFFVDAERVPCRHDDVFFPPSASFRVGLGPGASPVRVRSISALGRTFTRDEDLAVFLASRAGRLRFHGPGALSVGPEDCADPSGCVCGNAEAQPWICAALLQPLGGRCPQAACHSALRPQGQCCDLCGAVVLLTHGPAFDLERYRARILDTFLGLPQYHGLQVAVSKVPRSSRLREADTEIQVVLVENGPETGGAGRLARALLADVAENGEALGVLEATMRESGAHVWGSSAAGLAGGVAAAVLLALLVLLVAPPLLRRAGRLRWRRHEAAAPAGAPLGFRNPVFDVTASEELPLPRRLSLVPKAAADSTSHSYFVNPLFAGAEAEA

Variants of: B1
Settings: with cubn_human CUBN

effect of a mutation on the interaction	Variant
with no effect	MGVLGRVLLWLQLCALTQAVSKLWVPNTDFDVAANWSQNRIPCAGGAVEFPADKMVSVLVQEGHAVSDMLLPLDGELVLASGAGFGVSDVGSHLDCGAGEPAVFRDSDRFSWHDPHLWRSGDEAPGLFFVDAERVPCRHDDVFFPPSASFRVGLGPGASPVRVRSISALGRTFTRDEDLAVFLASRAGRLRFHGPGALSVGPEDCADPSGCVCGNAEAQPWICAALLQPLGGRCPQAACHSALRPQGQCCDLCGAVVLLTHGPAFDLERYRARILDTFLGLPQYHGLQVAVSKVPRSSRLREADTEIQVVLVENGPETGGAGRLARALLADVAENGEALGVLEATMRESGAHVWGSSAAGLAGGVAAAVLLALLVLLVAPPLLRRAGRLRWRRHEAAAPAGAPLGFRNPVFDVTASEELPLPRRLSLVPKAAADSTSHSYFVNPLFAGAEAEA [T41I]
with no effect	MGVLGRVLLWLQLCALTQAVSKLWVPNTDFDVAANWAQNRIPCAGGAVEFPADKMVSVLVQEGHAVSDMLLPLDGELVLASGAGFGVSDVGSHLDCGAGEPAVFRDSDRFSWHDPHLWRSGDEAPGLFFVDAERVPCRHDDVFFPPSASFRVGLGPGASPVRVRSISALGRTFTRDEDLAVFLASRAGRLRFHGPGALSVGPEDCADPSGCVCGNAEAQPWICAALLQPLGGRCPQAACHSALRPQGQCCDLCGAVVLLTHGPAFDLERYRARILDTFLGLPQYHGLQVAVSKVPRSSRLREADTEIQVVLVENGPETGGAGRLARALLADVAENGEALGVLEATMRESGAHVWGSSAAGLAGGVAAAVLLALLVLLVAPPLLRRAGRLRWRRHEAAAPAGAPLGFRNPVFDVTASEELPLPRRLSLVPKAAADSTSHSYFVNPLFAGAEAEA [S37A;T41I]
disrupting interaction strength	MGVLGRVLLWLQLCALTQAVSKLWVPNTDFDVAAQWSQNRIPCAGGAVEFPADKMVSVLVQEGHAVSDMLLPLDGELVLASGAGFGVSDVGSHLDCGAGEPAVFRDSDRFSWHDPHLWRSGDEAPGLFFVDAERVPCRHDDVFFPPSASFRVGLGPGASPVRVRSISALGRTFTRDEDLAVFLASRAGRLRFHGPGALSVGPEDCADPSGCVCGNAEAQPWICAALLQPLGGRCPQAACHSALRPQGQCCDLCGAVVLLTHGPAFDLERYRARILDTFLGLPQYHGLQVAVSKVPRSSRLREADTEIQVVLVENGPETGGAGRLARALLADVAENGEALGVLEATMRESGAHVWGSSAAGLAGGVAAAVLLALLVLLVAPPLLRRAGRLRWRRHEAAAPAGAPLGFRNPVFDVTASEELPLPRRLSLVPKAAADSTSHSYFVNPLFAGAEAEA [N35Q;T41I]
disrupting interaction strength	MGVLGRVLLWLQLCALTQAVSKLWVPNTDFDVAAQWSQNRTPCAGGAVEFPADKMVSVLVQEGHAVSDMLLPLDGELVLASGAGFGVSDVGSHLDCGAGEPAVFRDSDRFSWHDPHLWRSGDEAPGLFFVDAERVPCRHDDVFFPPSASFRVGLGPGASPVRVRSISALGRTFTRDEDLAVFLASRAGRLRFHGPGALSVGPEDCADPSGCVCGNAEAQPWICAALLQPLGGRCPQAACHSALRPQGQCCDLCGAVVLLTHGPAFDLERYRARILDTFLGLPQYHGLQVAVSKVPRSSRLREADTEIQVVLVENGPETGGAGRLARALLADVAENGEALGVLEATMRESGAHVWGSSAAGLAGGVAAAVLLALLVLLVAPPLLRRAGRLRWRRHEAAAPAGAPLGFRNPVFDVTASEELPLPRRLSLVPKAAADSTSHSYFVNPLFAGAEAEA [N35Q]
with no effect	MGVLGRVLLWLQLCALTQAVSKLWVPNTDFDVAANWAQNRTPCAGGAVEFPADKMVSVLVQEGHAVSDMLLPLDGELVLASGAGFGVSDVGSHLDCGAGEPAVFRDSDRFSWHDPHLWRSGDEAPGLFFVDAERVPCRHDDVFFPPSASFRVGLGPGASPVRVRSISALGRTFTRDEDLAVFLASRAGRLRFHGPGALSVGPEDCADPSGCVCGNAEAQPWICAALLQPLGGRCPQAACHSALRPQGQCCDLCGAVVLLTHGPAFDLERYRARILDTFLGLPQYHGLQVAVSKVPRSSRLREADTEIQVVLVENGPETGGAGRLARALLADVAENGEALGVLEATMRESGAHVWGSSAAGLAGGVAAAVLLALLVLLVAPPLLRRAGRLRWRRHEAAAPAGAPLGFRNPVFDVTASEELPLPRRLSLVPKAAADSTSHSYFVNPLFAGAEAEA [S37A]

Variants of: B1
Settings: with cubn_human CUBN
Remark: another data set of the same source

effect of a mutation on the interaction	Variant
disrupting interaction strength	MGVLGRVLLWLQLCALTQAVSKLWVPNTDFDVAANWSQNRTPCAGGAVEFPADKMVSVLVQEGHAVSDMLLPLDGELVLASGAGFGVSDVGSHLDCGAGEPAVFRDSDRFSWHDPHLWRSGDEAPGLFFVDAERVPCRHDDVFFPPSASFRVGLGPGASPVRVRSISALGRTFTRDEDLAVFLASRAGRLRFHGPGALSVGPEDCADPSGCVCGNAEAQPWICAALLQPLGGRCPQAACHSALRPQGQCCDLCEAVVLLTHGPAFDLERYRARILDTFLGLPQYHGLQVAVSKVPRSSRLREADTEIQVVLVENGPETGGAGRLARALLADVAENGEALGVLEATMRESGAHVWGSSAAGLAGGVAAAVLLALLVLLVAPPLLRRAGRLRWRRHEAAAPAGAPLGFRNPVFDVTASEELPLPRRLSLVPKAAADSTSHSYFVNPLFAGAEAEA [G254E]
disrupting interaction strength	MGVLGRVLLWLQLCALTQAVSKLWVPNTDFDVAANWSQNRTPCAGGAVEFPADKMVSVLVQEGHAVSDKLLPLDGELVLASGAGFGVSDVGSHLDCGAGEPAVFRDSDRFSWHDPHLWRSGDEAPGLFFVDAERVPCRHDDVFFPPSASFRVGLGPGASPVRVRSISALGRTFTRDEDLAVFLASRAGRLRFHGPGALSVGPEDCADPSGCVCGNAEAQPWICAALLQPLGGRCPQAACHSALRPQGQCCDLCGAVVLLTHGPAFDLERYRARILDTFLGLPQYHGLQVAVSKVPRSSRLREADTEIQVVLVENGPETGGAGRLARALLADVAENGEALGVLEATMRESGAHVWGSSAAGLAGGVAAAVLLALLVLLVAPPLLRRAGRLRWRRHEAAAPAGAPLGFRNPVFDVTASEELPLPRRLSLVPKAAADSTSHSYFVNPLFAGAEAEA [M69K]
disrupting interaction strength	MGVLGRVLLWLQLCALTQAVSKLWVPNTDFDVAANWSQNRTPCAGGAVEFPADKMVSVLVQEGHAVSDMLLPLDGELVLASGAGFGVSDVGSHLDCGAGEPAVFRDSDRFSWHDPHLWRSGDEAPGLFFVDAERVPCRHDDVFFPPSASFRVGLGPGASPVRVRSISALGRTFTRDEDLAVFLASRAGRLRFHGPGALSVGPEDCADPSGCVCGNAEAQPWICAALLQPLGGRFPQAACHSALRPQGQCCDLCGAVVLLTHGPAFDLERYRARILDTFLGLPQYHGLQVAVSKVPRSSRLREADTEIQVVLVENGPETGGAGRLARALLADVAENGEALGVLEATMRESGAHVWGSSAAGLAGGVAAAVLLALLVLLVAPPLLRRAGRLRWRRHEAAAPAGAPLGFRNPVFDVTASEELPLPRRLSLVPKAAADSTSHSYFVNPLFAGAEAEA [C234F]
disrupting interaction strength	MGVLGRVLLWLQLCALTQAVSKLWVPNTDFDVAANWSQNRTPCAGGAVEFPADKMVSVPVQEGHAVSDMLLPLDGELVLASGAGFGVSDVGSHLDCGAGEPAVFRDSDRFSWHDPHLWRSGDEAPGLFFVDAERVPCRHDDVFFPPSASFRVGLGPGASPVRVRSISALGRTFTRDEDLAVFLASRAGRLRFHGPGALSVGPEDCADPSGCVCGNAEAQPWICAALLQPLGGRCPQAACHSALRPQGQCCDLCGAVVLLTHGPAFDLERYRARILDTFLGLPQYHGLQVAVSKVPRSSRLREADTEIQVVLVENGPETGGAGRLARALLADVAENGEALGVLEATMRESGAHVWGSSAAGLAGGVAAAVLLALLVLLVAPPLLRRAGRLRWRRHEAAAPAGAPLGFRNPVFDVTASEELPLPRRLSLVPKAAADSTSHSYFVNPLFAGAEAEA [L59P]
